Source: paper PMC12533313 (2025)

Biological target: α‐synuclein preformed fibrils (UniProt P37840 1-140)
Experiment: SPR

Kd: 6.67 µM
B1: Recombinant mouse 24p3R protein (receptor)
chain: MPSARFGRRGIVLLTLGLVGPCGVGGAAAGSSTGIMALRFLLGFLLAGVDLGVYLMRLELCDPTQRLRVALAGELVGVGGHFLFLGLALVSKDWRFLQRMITAPCILFLFYGWPGLFLESARWLIVKRQIEEAQSVLRILAERNRPHGQMLGEEAQEALQELENTCPLPATSTFSFASLLNYRNIWKNLLILGFTNFIAHAIRHCYQPVGGGGSPSDFYLCSLLASGTAALACVFLGVTVDRFGRRGILLLSMTLTGIASLVLLGLWDYLNDAAITTFSVLGLFSSQASAILSTLLASEVIPTTVRGRGLGLIMALGALGGLSCPAQRLHMGHGAFLQHVVLAACALLCILSIMLLPETKRKLLPEVLRDGELCRRPSLLRQPPPNRCDHVPLLATPNPAL
